The text below walks through data of patent US7838495B2, “Compositions and methods of use of EPB1, and ErbB3 binding protein” (University of Maryland, Baltimore, priority 2007, dated 2010).

One experiment concerns LNCaP cells. In words: Cell growth assays of LNCaP EPB1 transfectants (complete media, soft agar). Type of experiment: cell-based, human. As to the method:
Cell Growth Assays: To measure growth in complete media, cells (2×10^4) were seeded in triplicate in individual wells of 12-well tissue culture plates in RPMI-1640 with 10% FBS and cultured for the indicated number of days. Cells were trypsinized, stained with Trypan Blue (0.4%), and counted in a hemacytometer. For soft agar growth assays, increasing concentrations of cells (as indicated) were plated in 35 mm Petri dishes in complete media and 0.3% Difco Bacto Agar over an 0.5% agar layer. Colonies were counted after 10 days of incubation. For studies assessing the effect of dihydrotestosterone (DHT) on cell growth, cells (2×10^4) were plated in 12-well plates in complete media. After a 24-hour attachment period, the medium was replaced with steroid-free medium [phenol red-free RPMI 1640 and 5% charcoal-stripped FBS (Sigma)] for 48 hours. The final concentration of testosterone in the steroid-reduced media was less than 5 pM. After 48 hours of steroid depletion, cells were re-fed with fresh steroid-reduced medium with or without the indicated concentrations of DHT and/or bicalutamide (10 μM), and total cell numbers were assessed 7 days later.

The next experiment has as its system AR-regulated genes. In words: Validation by real-time RT-PCR, Western blot and ELISA in LNCaP EPB1 transfectants. Format: cell-based, human. As to the method:
Real-Time Quantitative Reverse-Transcription PCR: The method of […] et al. (Nakanishi et al., 2003, Quantitative Analysis of Breast Cancer Resistance Protein and Cellular Resistance to Flavopiridol in Acute Leukemia Patients, Clin. Cancer Res., 9: 3320-3328) was used as previously described. […] Real-time quantitative RT-PCR was then performed on the LightCycler (Roche, Indianapolis, Ind.) platform to determine the relative mRNA levels of EPB1, AR, kallikrein-2 and POV-1. The following forward and reverse primers were selected using Primer Express software and synthesized by Core Laboratory of University of Maryland School of Medicine: EPB1, sense: [NT] ID NO: 4) and antisense: [NT] ID NO: 5), sense: [NT] ID NO: 6) and antisense: [NT] ID NO: 7), Kallikrein-2, sense: [NT] ID NO: 8) and antisense: [NT] ID NO: 9), POV-1, sense: [NT] ID NO: 10) and antisense: [NT] ID NO: 11), Actin, sense: [NT] ID NO: 12) and antisense […] ID NO: 13). […] Target mRNA values were normalized using actin mRNA as an internal control. The relative quantitation of gene expression was performed using the comparative ΔΔ Ct (threshold method) using β-actin as an internal control ([…] et al., 2002, The Nonsteroidal Anti-Inflammatory Drug Sulindac Causes Down-Regulation of Signal Transducer and Activator of Transcription 3 in Human Oral Squamous Cell Carcinoma Cells, Cancer Research, 62:1004-1007). Western Blot Analysis: Briefly, total cell extracts were prepared by direct lysis of cells with buffer containing 50 mM Tris-HCl (pH 7.4), 1 mM EDTA, 250 mM NaCl, 1% Triton® X-100, 0.5 mM dithiothreitol (DTT) and 1 mM phenylmethylsulfonyl (PMSF). Protein concentrations were measured using a detergent compatible kit (BioRad, Hercules, Calif.). Proteins were resolved by SDS-PAGE and analyzed by Western blotting as described (Xia et al., 2001, Analysis of the Expression Pattern of EPB1, an ErbB-3-Binding Protein, Biochem. Biophys. Res. Commun., 289:240-244). The AR antibody was from Santa Cruz Biotechnology (Santa Cruz, Calif.), the EPB1 antibody from Upstate (Lake Placid, N.Y.), the polyclonal antibody to actin from Sigma (St. Louis, Mo.), and the POV-1 antibody was a gift. Measurement of PSA levels: Serum PSA levels were determined using a PSA ELISA kit from DSL, Inc (Webster, Tex.). […] Following a 1 h incubation and extensive washing of the plate, the wells were treated for 30 min with a second anti-PSA antibody labeled with horseradish peroxidase. After washing, the wells were treated with a tetramethylbendizine substrate for 10 min, and absorbance was read at 450 nm. The results of the microarray analysis were validated using real-time quantitative reverse-transcription PCR, Western blot, and ELISA methods. […] PSA secretion in the conditioned media of EPB1 and vector control cells was assessed by ELISA.
On the technique in general: Real-time PCR tracks product formation cycle by cycle.

B1: EBP1: ErbB3 binding protein (SEQ ID NO: 2), AR corepressor, here ectopically expressed in cancer cells by stable transfection of an expression plasmid (protein, listed as Homo sapiens)
chain: MSGEDEQQEQTIAEDLVVTKYKMGGDIANRVLRSLVEASSSGVSVLSLCEKGDAMIMEETGKIFKKEKEMKKGIAFPTSISVNNCVCHFSPLKSDQDYILKEGDLVKIDLGVHVDGFIANVAHTFVVDVAQGTQVTGRKADVIKAAHLCAEAALRLVKPGNQNTQVTEAWNKVAHSFNCTPIEGMLSHQLKQHVIDGEKTIIQNPTDQQKKDHEKAEFEVHEVYAVDVLVSSGEGKAKDAGQRTTIYKRDPSKQYGLKMKTSRAFFSEVERRFDAMPFTLRAFEDEKKARMGVVECAKHELLQPFNVLYEKEGEFVAQFKFTVLLMPNGPMRITSGPFEPDLYKSEMEVQDAELKALLQSSASRKTQKKKKKKASKTAENATSGETLEENEAGD
modifications: FLAG tag
With B1, the “growth rate in complete media” value in the experiment with LNCaP cells (LNCaP EPB1 transfectants vs vector control, p<0.05) is listed as “significantly decreased”. In addition, in the experiment with LNCaP cells (LNCaP EPB1 transfectants, complete media (vector control 48 hours)), the doubling time stood at 72 h. Moreover, the “decrease of colony growth in soft agar” value in the experiment with LNCaP cells (LNCaP, highest cell concentration tested, ten days) is given as “approximately 90%”. Further, in the experiment on AR-regulated genes (LNCaP EPB1 transfectants), the “POV-1 mRNA decrease” value is reported as “about two-fold”, the POV-1 protein decrease result was “about two-fold” and the “kallikrein-2 mRNA expression decrease” value is recorded as “approximately 40%”. Moreover, in the experiment with AR-regulated genes (LNCaP EPB1 transfectants, Western blot), the AR protein decrease entry was “more than five-fold”. Besides, the “AR mRNA down-regulation” value in the experiment with AR-regulated genes (LNCaP EPB1 transfectants, real-time PCR) is on record as “more than 2 fold”. The “secreted PSA protein downregulation” value in the experiment with AR-regulated genes (conditioned media of LNCaP EPB1 transfectants vs controls, ELISA) turned out to be 10 fold.
